Consider one molecule from patent publication US20070292420A1 (Janssen / Centocor, published 2007).

Test [1] addresses T1, recombinant human IL-6 (human, UniProt P05231 30-212). The test can be described thus: cell-based or functional assay.
Test [2] deals with T1, recombinant human IL-6. The test can be described thus: SPR (BIAcore 2000, 25 C); cCLB8 captured on anti-human Fc, IL-6 as analyte; 1:1 model. As for the experimental part:
(§1) An anti-human Fc (1.8 mg/ml) was diluted to a concentration of 50 μg/ml in NaOAc buffer (10 mM, pH 4.8) and coupled to the carboxymethylated dextran matrix of a CM-5 sensor chip using the manufacturer's amine-coupling chemistry as described in the BIAcore systems manual. Using the surface preparation wizard aiming for 10000 RU, the carboxyl groups on the sensor surfaces were first activated with NHS/EDC followed by the addition of the anti-human Fc. The remaining activated groups were blocked by the injection of 1M ethanolamine. Each of the flow cells was coupled individually. Employing these conditions, the four flow cell surfaces containing 7554-9571 resonance units (RU) of anti-human Fc were prepared. In preliminary experiments, it was determined that three injections (15 ul at 30 μl/min) 100mM H3PO4/0.05% CHAPS would efficiently remove the bound immunoglobulin and preserve the binding capacity of the immobilized anti-human Fc.
(§2) Two experiments were performed on the BIAcore 2000 at 25 °C and a flow rate of 30 μL/min. cCLB8 was dissolved in HBS at 5 ug/ml. […] A designated amount of antibody was flowed over its respective flow cell followed by injections of 30 μl of each IL-6 concentration at 30 μl/min (association phase) and an uninterrupted 800 seconds of buffer flow (dissociation phase). The surface of the chip was regenerated by three sequential injections of 15 μl each with 100 mM H3PO4/0.05% CHAPS. The injections of HBS serve as a reference (blank sensogram) for the subtraction of bulk refractive indices for analysis. Using the 1:1 model in BIAanalysis 3.0, a local fit was done for both dissociation (kd, [s−1] and association (ka, [M-1s−1]) and the dissociation constant (KD, [M]) calculated (kd/ka).
(§3) Analysis was done using BIAevaluation version 3.0. Kinetic constants were derived from sensogram data by fitting the experimental curves to the rate equations derived from models of the interaction mechanism. A global analysis using a 1:1 binding model with local RUmax fit, the ka, kd, KD were determined (Table 1).
(SPR reads the build-up and loss of mass on a sensor chip optically.)

The target of test [3] is T1, recombinant human IL-6. The test can be described thus: SPR (BIAcore 2000, 25 C); cCLB8 captured on anti-human Fc, IL-6 as analyte; 1:1 model; second experiment. As for the experimental part: as §1, §2, §3
Test [4] addresses T1, recombinant human IL-6. The test can be described thus: solid phase EIA, plate coated with recombinant human IL-6 at 1 µg/mL, detection with HRP goat anti-human IgG, OD 490. How it is done: A solid phase EIA was used to assess binding characteristics of cCLB8 Mab to human IL-6. Briefly, plates were coated with recombinant human IL-6 (RDI) at 1 μg/mL in PBS overnight at 4° C. After washing in 0.15M saline containing 0.02% (v/v) Tween 20, the wells were blocked with 1% (w/v) BSA in PBS, 200 μL/well for 1 hour at RT. Purified antibody was incubated in two-fold serial dilutions from a starting concentration of 5 μg/mL for 1 hour at 37° C. The plate was washed and then probed with 50 μL/well HRP-labeled goat anti-human IgG (Tago) diluted 1:20,000 in 1% BSA-PBS for 1 hour at RT. The plate was again washed and 100 μL/well of the citrate-phosphate substrate solution (0.1 M citric acid and 0.2M sodium phosphate, 0.01% H₂O₂ and 1 mg/mL OPD) was added for 15 minutes at RT. Stop solution (4N sulfuric acid) was then added at 25 μL/well and the absorption at 490 nm quantitated using an automated plate photometer.

B1: chimeric CLB8 anti-human IL-6 monoclonal antibody (antibody, IgG1, V domains shown)
VH: EVQLVESGGKLLKPGGSLKLSCAASGFTFSSFAMSWFRQSPEKRLEWVAEISSGGSYTYYPDTVTGRFTISRDNAKNTLYLEMSSLRSEDTAMYYCARGLWGYYALDYWGQGTSVTVSS
VL: QIVLIQSPAIMSASPGEKVTMTCSASSSVSYMYWYQQKPGSSPRLLIYDTSNLASGVPVRFSGSGSGTSYSLTISRMEAEDAATYYCQQWSGYPYTFGGGTKLEIK
notes: Murine CLB-8 variable regions joined to human constant regions; IgG1 and kappa are named only as preferred; also called anti-IL-6 cCLB-8 antibody; CNTO 328
Turning to B1, the “EC50 of inhibition of IL-6 induced 7TD1 cell proliferation (luminescent ATP assay)” value in test [1] was found to be 7.2 ng/mL. Also, in test [2], the Kd – broadly, a measure of binding affinity in units of concentration – amounted to 0.057 nM; the koff (commonly the rate constant with which the complex falls apart) was determined as 6.2e-05 s⁻¹; the kon – broadly, the second-order rate constant of association – came out at 1.1e+06 M⁻¹ s⁻¹. Also, in test [3], the dissociation constant (Kd) was 0.14 nM, the koff came out at 5.2e-05 s⁻¹ and the kon came out at 370000 M⁻¹ s⁻¹. The EC50 (read off the curve) (as a rule, the concentration needed to bring the measured effect to its halfway point) in test [4] was about 4 ng/mL.
